# No end group written: not given here.
# T1: biotin-labeled DsbA (UniProt P0AEG4 20-208, limits assumed, biotin-labeled)
# T1 sequence (looked up): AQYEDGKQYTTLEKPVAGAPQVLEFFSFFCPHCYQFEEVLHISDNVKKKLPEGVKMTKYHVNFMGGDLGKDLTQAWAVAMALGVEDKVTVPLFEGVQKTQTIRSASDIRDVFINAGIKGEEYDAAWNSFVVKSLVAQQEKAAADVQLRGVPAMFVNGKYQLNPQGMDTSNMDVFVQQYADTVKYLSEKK
# What was measured:
# [1] = target: T1, biotin-labeled DsbA; assay: peptide microarray fluorescence (Cy5), peptide on the array, biotin-DsbA in solution
# [2] = target: T1, biotin-labeled DsbA; assay: SPR, Biacore X100, biotin-DsbA on streptavidin chip, peptide as analyte
# Protocol: Kinetic analysis of the interaction between the discovered peptides and DsbA was performed using a Biacore XI00. Biotin-labeled DsbA (1 uM) was immobilized on streptavidin coated chip (GE Healthcare) to a target level of 1,000 response units in HBS-P+. […] Fourteen dilutions of peptide from 5000 nM to 0.6 nM in HBS-P+were flowed over the DsbA coated chip in triplicate with a contact time of 120 seconds and a dissociation time of 600 seconds. […] All peptides were amidated on the C-terminus.
# [3] = target: T1, biotin-labeled DsbA; assay: Biacore X100 per the table title, biotin-DsbA on streptavidin chip; paragraph 121 says Biacore or ITC (Duprez 2015)
Binder,SIGNAL INTENSITY [1],Kd [2],Kd [3]
VIGQCLKN-NH2 [VIGQCLKN-NH2],588,623 nM,–
VILGQCLKQ-NH2 [VILGQCLKQ-NH2],965,517 nM,–
HNWAAQCLKDQAKL-NH2 [HNWAAQCLKDQAKL-NH2],1760,88 nM,–
YVYGMCWKDYTTDK-NH2 [YVYGMCWKDYTTDK-NH2],2300,78 nM,–
WQYENWAITKWQCVK-NH2 [WQYENWAITKWQCVK-NH2],1430,83 nM,–
YVYGMCWKDYTDTDK-NH2 [YVYGMCWKDYTDTDK-NH2],2110,116 nM,–
SIIGQCYKKDPSQAT-NH2 [SIIGQCYKKDPSQAT-NH2],–,553 nM,–
PSPWATCDF-NH2 [PSPWATCDF-NH2],82,–,2900 nM
VIVGQCLKK-NH2 [VIVGQCLKK-NH2],282,622 nM,–
HNWAAQCLNPDQAKL-NH2 [HNWAAQCLNPDQAKL-NH2],2640,57 nM,–
SIIGMCYKKDPS-NH2 [SIIGMCYKKDPS-NH2],1360,188 nM,–
DFWHGETCKVTQFDQ-NH2 [DFWHGETCKVTQFDQ-NH2],1800,84 nM,–
DFWHGDTCKVTQFDQ-NH2 [DsbA_1_WT],1750,208 nM,–
DFWHGEQCKVTQFDQ-NH2 [DFWHGEQCKVTQFDQ-NH2],4590,53 nM,–
NDYQYKGQQCLDPKY-NH2 [NDYQYKGQQCLDPKY-NH2],3620,48 nM,–

# Source: patent US20220243360A1 (ROCHE SEQUENCING SOLUTIONS, published 2022)
